From patent publication US20170037111A1, “Novel peptides and combination of peptides for use in immunotherapy against ovarian cancer and other cancers” (immatics biotechnologies GmbH, priority 2015, published 2017)

Target: HLA-A*02:01 (Homo sapiens, UniProt P04439, D140Y/D185E/D98H/E176V/E277Q/G131W/G231S/I119V/I121R/I166T/I218V/L300P/L318F/N151K/N90K/P208A/P217A/Q86G/Q94H/R138H/R169H/T345S)
Experiment: MHC binding assay (UV-ligand exchange, β2m ELISA, peptide exchange yield)
Settings: MHC class I binding score; binding to HLA-A*02:01 ranged by peptide exchange yield (UV-ligand exchange, β2m ELISA)
Text: Candidate peptides for T cell based therapies according to the present invention were further tested for their MHC binding capacity (affinity). The individual peptide-MHC complexes were produced by UV-ligand exchange, where a UV-sensitive peptide is cleaved upon UV-irradiation, and exchanged with the peptide of interest as analyzed. Only peptide candidates that can effectively bind and stabilize the peptide-receptive MHC molecules prevent dissociation of the MHC complexes. To determine the yield of the exchange reaction, an ELISA was performed based on the detection of the light chain (β2m) of stabilized MHC complexes. The assay was performed as generally described in Rodenko et al. (Rodenko et al., 2006).
96 well MAXISorp plates (NUNC) were coated over night with 2 ug/ml streptavidin in PBS at room temperature, washed 4× and blocked for 1h at 37° C. in 2% BSA containing blocking buffer. […] Peptide-MHC monomers of the UV-exchange reaction were diluted 100 fold in blocking buffer. Samples were incubated for 1h at 37° C., washed four times, incubated with 2 ug/ml HRP conjugated anti-β2m for 1h at 37° C., washed again and detected with TMB solution that is stopped with […]. Absorption was measured at 450 nm. Candidate peptides that show a high exchange yield (preferably higher than 50%, most preferred higher than 75%) are generally preferred for a generation and production of antibodies or fragments thereof, and/or T cell receptors or fragments thereof, as they show sufficient avidity to the MHC molecules and prevent dissociation of the MHC complexes.

Row | Substance | Peptide exchange
1 | 94 (YLIDIKTIAI; listed as Homo sapiens) [compound 94] | ″++″ (≧20% = ++)
2 | 95 (SVIPQIQKV; listed as Homo sapiens) [compound 95] | ″+++″ (≧50% = +++)
3 | 96 (YIFTDNPAAV; listed as Homo sapiens) [compound 96] | ″+++″ (≧50% = +++)
4 | 97 (SLINGSFLV; listed as Homo sapiens) [compound 97] | ″+++″ (≧50% = +++)
5 | 98 (LIIDQADIYL; listed as Homo sapiens) [compound 98] | ″+++″ (≧50% = +++)
6 | 99 (ALVSKGLATV; listed as Homo sapiens) [compound 99] | ″++″ (≧20% = ++)
7 | 100 (YLLSTNAQL; listed as Homo sapiens) [compound 100] | ″++++″ (≧75% = ++++)
8 | 101 (ILVGGGALATV; listed as Homo sapiens) [compound 101] | ″+++″ (≧50% = +++)
9 | 102 (YLFESEGLVL; listed as Homo sapiens) [compound 102] | ″+++″ (≧50% = +++)
10 | 103 (TLAEEVVAL; listed as Homo sapiens) [compound 103] | ″+++″ (≧50% = +++)
11 | 104 (STMEQNFLL; listed as Homo sapiens) [compound 104] | ″++++″ (≧75% = ++++)
12 | 106 (LLYDAVHIVSV; listed as Homo sapiens) [compound 106] | ″+++″ (≧50% = +++)
13 | 107 (FLQPVDDTQHL; listed as Homo sapiens) [compound 107] | ″+++″ (≧50% = +++)
14 | 109 (IILSILEQA; listed as Homo sapiens) [compound 109] | ″++++″ (≧75% = ++++)
15 | 110 (FLSQVDFEL; listed as Homo sapiens) [compound 110] | ″+++″ (≧50% = +++)
16 | 111 (YVWGFYPAEV; listed as Homo sapiens) [compound 111] | ″+++″ (≧50% = +++)
17 | 114 (SLVGEPILQNV; listed as Homo sapiens) [compound 114] | ″++″ (≧20% = ++)
18 | 115 (AIAGAGILYGV; listed as Homo sapiens) [compound 115] | ″++″ (≧20% = ++)
19 | 116 (YHIDEEVGF; listed as Homo sapiens) [compound 116] | ″+″ (≧10% = +)
20 | 117 (ILPDGEDFLAV; listed as Homo sapiens) [compound 117] | ″+++″ (≧50% = +++)

Row | Substance | Peptide exchange
21 | 119 (FLYIGDIVSL; listed as Homo sapiens) [compound 119] | ″++++″ (≧75% = ++++)
22 | 120 (ALLGIPLTLV; listed as Homo sapiens) [compound 120] | ″+++″ (≧50% = +++)
23 | 121 (GVVDPRAISVL; listed as Homo sapiens) [compound 121] | ″++″ (≧20% = ++)
24 | 122 (FLLAEDDIYL; listed as Homo sapiens) [compound 122] | ″+++″ (≧50% = +++)
25 | 123 (NLWDLTDASVV; listed as Homo sapiens) [compound 123] | ″+++″ (≧50% = +++)
26 | 124 (ALYETELADA; listed as Homo sapiens) [compound 124] | ″++″ (≧20% = ++)
27 | 125 (VQIHQVAQV; listed as Homo sapiens) [compound 125] | ″+++″ (≧50% = +++)
28 | 126 (VLAYFLPEA; listed as Homo sapiens) [compound 126] | ″++++″ (≧75% = ++++)
29 | 127 (KIGDEPPKV; listed as Homo sapiens) [compound 127] | ″++″ (≧20% = ++)
30 | 128 (YLFDDPLSAV; listed as Homo sapiens) [compound 128] | ″++″ (≧20% = ++)
31 | 129 (GLLDGGVDILL; listed as Homo sapiens) [compound 129] | ″+++″ (≧50% = +++)
32 | 130 (FLWNGEDSALL; listed as Homo sapiens) [compound 130] | ″+++″ (≧50% = +++)
33 | 131 (FVPPVTVFPSL; listed as Homo sapiens) [compound 131] | ″++″ (≧20% = ++)
34 | 132 (LLVEQPPLAGV; listed as Homo sapiens) [compound 132] | ″+++″ (≧50% = +++)
35 | 133 (KVLSNIHTV; listed as Homo sapiens) [compound 133] | ″++″ (≧20% = ++)
36 | 134 (YLQELIFSV; listed as Homo sapiens) [compound 134] | ″+++″ (≧50% = +++)
37 | 135 (ALSEVDFQL; listed as Homo sapiens) [compound 135] | ″+++″ (≧50% = +++)
38 | 136 (YLADPSNLFVV; listed as Homo sapiens) [compound 136] | ″+++″ (≧50% = +++)
39 | 137 (TLVLTLPTV; listed as Homo sapiens) [compound 137] | ″++++″ (≧75% = ++++)
40 | 138 (YQYPRAILSV; listed as Homo sapiens) [compound 138] | ″+++″ (≧50% = +++)

Row | Substance | Peptide exchange
41 | 139 (SVMEVNSGIYRV; listed as Homo sapiens) [compound 139] | ″+++″ (≧50% = +++)
42 | 140 (YMDAPKAAL; listed as Homo sapiens) [compound 140] | ″++″ (≧20% = ++)
43 | 142 (FLFATPVFI; listed as Homo sapiens) [compound 142] | ″+++″ (≧50% = +++)
44 | 144 (YIMEPSIFNTL; listed as Homo sapiens) [compound 144] | ″+++″ (≧50% = +++)
45 | 145 (FLATSGTLAGI; listed as Homo sapiens) [compound 145] | ″++″ (≧20% = ++)
46 | 146 (SLATAGDGLIEL; listed as Homo sapiens) [compound 146] | ″++″ (≧20% = ++)
47 | 147 (SLLEAVSFL; listed as Homo sapiens) [compound 147] | ″+++″ (≧50% = +++)
48 | 148 (ALNPEIVSV; listed as Homo sapiens) [compound 148] | ″++″ (≧20% = ++)
49 | 149 (NLLELFVQL; listed as Homo sapiens) [compound 149] | ″+++″ (≧50% = +++)
50 | 151 (KILQQLVTL; listed as Homo sapiens) [compound 151] | ″+++″ (≧50% = +++)
51 | 153 (FLIANVLYL; listed as Homo sapiens) [compound 153] | ″+″ (≧10% = +)
52 | 154 (ALDDGTPAL; listed as Homo sapiens) [compound 154] | ″++″ (≧20% = ++)
53 | 155 (RVANLHFPSV; listed as Homo sapiens) [compound 155] | ″+++″ (≧50% = +++)
54 | 158 (KLFDVDEDGYI; listed as Homo sapiens) [compound 158] | ″+++″ (≧50% = +++)
55 | 159 (GLVGNPLPSV; listed as Homo sapiens) [compound 159] | ″++++″ (≧75% = ++++)
56 | 160 (FLFDEEIEQI; listed as Homo sapiens) [compound 160] | ″+++″ (≧50% = +++)
57 | 161 (ALLEGVNTV; listed as Homo sapiens) [compound 161] | ″+++″ (≧50% = +++)
58 | 162 (YQQAQVPSV; listed as Homo sapiens) [compound 162] | ″+++″ (≧50% = +++)
